# Laboratory results: the supplement of paper PMC9112550, “Optimization of the antimicrobial peptide Bac7 by deep mutational scanning” (BMC Biology, 2022)
# Test system: Escherichia coli TOP10
# Test: shrunken log2 fold change of peptide-encoding DNA abundance (4.5 h post-induction vs induction); higher = less antimicrobial activity (less host growth inhibition)
# Details: time post-induction: 4.5 h; library: site-saturation at positions 5, 18, 19, 20
# 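Note: peptides expressed intracellularly from a pBAD plasmid library in pooled LB shake-flask culture, induced with 0.3% L-arabinose, DNA abundance read by NGS, three biological replicates, DESeq2 with apeglm shrinkage.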
row,Sequence,shrunken log2 fold change
1,RRIRCRPPRLPRPRPRPYLGPRP,-0.213
2,RRIRLRPPRLPRPRPRPNREPRP,-0.118
3,RRIRARPPRLPRPRPRPPEFPRP,0.558
4,RRIRLRPPRLPRPRPRPLWLPRP,-0.0303
5,RRIRCRPPRLPRPRPRPRYTPRP,-0.37
6,RRIRRRPPRLPRPRPRPEEYPRP,-0.173
7,RRIRFRPPRLPRPRPRPAVFPRP,0.259
8,RRIRMRPPRLPRPRPRPWPQPRP,0.729
9,RRIRKRPPRLPRPRPRPQGLPRP,0.256
10,RRIRERPPRLPRPRPRPHENPRP,-0.365
11,RRIRVRPPRLPRPRPRPPPDPRP,0.834
12,RRIRRRPPRLPRPRPRPDYNPRP,-0.0973
13,RRIRMRPPRLPRPRPRPTICPRP,0.0136
14,RRIRCRPPRLPRPRPRPDEQPRP,-0.00573
15,RRIRTRPPRLPRPRPRPYFQPRP,-0.587
16,RRIRQRPPRLPRPRPRPNLRPRP,0.0769
17,RRIRIRPPRLPRPRPRPDNWPRP,-0.128
18,RRIRARPPRLPRPRPRPCWYPRP,-0.16
19,RRIRCRPPRLPRPRPRPAYVPRP,-0.288
20,RRIRPRPPRLPRPRPRPVVLPRP,0.00791
21,RRIRPRPPRLPRPRPRPENIPRP,-0.102
22,RRIRKRPPRLPRPRPRPYLIPRP,-1.9

row,Sequence,shrunken log2 fold change
1,RRIRCRPPRLPRPRPRPLMYPRP,-0.606
2,RRIRARPPRLPRPRPRPNFAPRP,0.467
3,RRIRIRPPRLPRPRPRPLNWPRP,-0.291
4,RRIRWRPPRLPRPRPRPWETPRP,-0.01
5,RRIRPRPPRLPRPRPRPLAWPRP,0.439
6,RRIRNRPPRLPRPRPRPPKYPRP,-0.349
7,RRIRYRPPRLPRPRPRPQLDPRP,-0.555
8,RRIRWRPPRLPRPRPRPAESPRP,0.0626
9,RRIRQRPPRLPRPRPRPSMQPRP,-0.0429
10,RRIRLRPPRLPRPRPRPVPMPRP,-0.0969
11,RRIRLRPPRLPRPRPRPEVKPRP,-0.108
12,RRIRVRPPRLPRPRPRPLMIPRP,-0.361
13,RRIRMRPPRLPRPRPRPATAPRP,1.17
14,RRIRHRPPRLPRPRPRPYQFPRP,-0.0129
15,RRIRGRPPRLPRPRPRPLVPPRP,0.417
16,RRIRRRPPRLPRPRPRPHVLPRP,0.0842
17,RRIRNRPPRLPRPRPRPLSLPRP,-0.291
18,RRIRKRPPRLPRPRPRPNVRPRP,-0.0184
19,RRIRMRPPRLPRPRPRPWGTPRP,0.254
20,RRIRCRPPRLPRPRPRPVKMPRP,-0.248
21,RRIRNRPPRLPRPRPRPLPGPRP,0.143
22,RRIRDRPPRLPRPRPRPSRRPRP,0.146

row,Sequence,shrunken log2 fold change
1,RRIRQRPPRLPRPRPRPNHMPRP,-0.422
2,RRIRVRPPRLPRPRPRPCKKPRP,-0.433
3,RRIRTRPPRLPRPRPRPDNVPRP,-0.881
4,RRIRNRPPRLPRPRPRPMATPRP,-0.0123
5,RRIRQRPPRLPRPRPRPLKEPRP,-0.0182
6,RRIRKRPPRLPRPRPRPNYNPRP,0.0883
7,RRIRFRPPRLPRPRPRPKIFPRP,-0.197
8,RRIRTRPPRLPRPRPRPYYVPRP,-1.13
9,RRIRDRPPRLPRPRPRPKQVPRP,-0.185
10,RRIRVRPPRLPRPRPRPMSDPRP,0.032
11,RRIRIRPPRLPRPRPRPSSWPRP,0.025
12,RRIRERPPRLPRPRPRPCYAPRP,-0.383
13,RRIRYRPPRLPRPRPRPYSFPRP,-0.106
14,RRIRWRPPRLPRPRPRPRKMPRP,0.382
15,RRIRVRPPRLPRPRPRPCQVPRP,-0.0502
16,RRIRWRPPRLPRPRPRPYIDPRP,-0.23
17,RRIRGRPPRLPRPRPRPINHPRP,-0.0462
18,RRIRVRPPRLPRPRPRPVEKPRP,0.265
19,RRIRDRPPRLPRPRPRPARHPRP,0.368
20,RRIRQRPPRLPRPRPRPRFIPRP,-0.398
21,RRIRKRPPRLPRPRPRPLLFPRP,0.176
22,RRIRCRPPRLPRPRPRPFLNPRP,-0.602

row,Sequence,shrunken log2 fold change
1,RRIRQRPPRLPRPRPRPVRLPRP,-0.0825
2,RRIRRRPPRLPRPRPRPPSIPRP,-0.212
3,RRIRRRPPRLPRPRPRPWDTPRP,-0.139
4,RRIRIRPPRLPRPRPRPENMPRP,-0.396
5,RRIRTRPPRLPRPRPRPVVHPRP,-0.0314
6,RRIRCRPPRLPRPRPRPCNMPRP,-0.502
7,RRIRWRPPRLPRPRPRPTENPRP,0.0907
8,RRIRIRPPRLPRPRPRPLWWPRP,0.266
9,RRIRARPPRLPRPRPRPPGCPRP,0.746
10,RRIRGRPPRLPRPRPRPCPEPRP,-0.0446
11,RRIRERPPRLPRPRPRPPWHPRP,-0.0644
12,RRIRKRPPRLPRPRPRPFMPPRP,-0.0694
13,RRIRTRPPRLPRPRPRPGDQPRP,-0.0663
14,RRIRTRPPRLPRPRPRPCEFPRP,-0.258
15,RRIRHRPPRLPRPRPRPETTPRP,0.194
16,RRIRDRPPRLPRPRPRPNHYPRP,-0.459
17,RRIRARPPRLPRPRPRPMGNPRP,-0.101
18,RRIRLRPPRLPRPRPRPQIVPRP,-0.0529
19,RRIRERPPRLPRPRPRPYICPRP,-0.486
20,RRIRLRPPRLPRPRPRPMCRPRP,-0.0985
21,RRIRSRPPRLPRPRPRPMAFPRP,-0.0285
22,RRIRPRPPRLPRPRPRPEGRPRP,0.545

row,Sequence,shrunken log2 fold change
1,RRIRHRPPRLPRPRPRPCWNPRP,-0.151
2,RRIRPRPPRLPRPRPRPYDGPRP,-0.7
3,RRIRFRPPRLPRPRPRPRQSPRP,0.443
4,RRIRMRPPRLPRPRPRPDYCPRP,-0.369
5,RRIRQRPPRLPRPRPRPTRVPRP,0.305
6,RRIRDRPPRLPRPRPRPNARPRP,0.299
7,RRIRSRPPRLPRPRPRPEKYPRP,-1.28
8,RRIRVRPPRLPRPRPRPEGDPRP,0.297
9,RRIRMRPPRLPRPRPRPANHPRP,0.0312
10,RRIRGRPPRLPRPRPRPFRIPRP,-0.212
11,RRIRQRPPRLPRPRPRPEQSPRP,0.142
12,RRIRDRPPRLPRPRPRPTEHPRP,-0.109
13,RRIRKRPPRLPRPRPRPFDCPRP,-0.128
14,RRIRFRPPRLPRPRPRPEWAPRP,0.398
15,RRIRPRPPRLPRPRPRPADYPRP,0.0631
16,RRIRKRPPRLPRPRPRPDLAPRP,0.042
17,RRIRLRPPRLPRPRPRPHQGPRP,-0.0634
18,RRIRYRPPRLPRPRPRPEYYPRP,-0.0128
19,RRIRQRPPRLPRPRPRPMSSPRP,-0.0871
20,RRIRKRPPRLPRPRPRPLMIPRP,-0.171
21,RRIRLRPPRLPRPRPRPRAMPRP,0.373
